The values that follow come from paper PMC10140047, “BICD2 phosphorylation regulates dynein function and centrosome separation in G2 and M” (Nature Communications, 2023).

Residue numbers refer to the chain shown, from its start. In names and notes the source's numbering stands.

B1: TwinStrep-BICD2 WT (natural protein, mouse, UniProt Q921C5 1-820, looked up)
chain: MSAPSEEEEYARLVMEAQPEWLRAEVKRLSHELAETTREKIQAAEYGLAVLEEKHQLKLQFEELEVDYEAIRSEMEQLKEAFGQAHTNHKKVAADGESREESLIQESASKEQYYVRKVLELQTELKQLRNVLTNTQSENERLTSVAQELKEINQNVEIQRGRLRDDIKEYKFREARLLQDYSELEEENISLQKQVSVLRQNQVEFEGLKHEIKRLEEETEYLNSQLEDAIRLKEISERQLEEALETLKTEREQKNNLRKELSHYMSINDSFYTSHLQVSLDGLKFSDDTVTAEPNNDAEALVNGFEHSGLVKSSLDNKTSTPRKDGLAPPSPSLVSDLLSELHISEIQKLKQQLVQMEREKVGLLATLQDTQKQLEQARGTLSEQHEKVNRLTENLSALRRLQAGKERQTSLDNEKDRDSHEDGDYYEVDINGPEILACKYHVAVAEAGELREQLKALRSTHEAREAQHAEEKGRYEAEGQALTEKISLLEKASHQDRELLAHLEKELKKVSDVAGETQGSLNVAQDELVTFSEELANLYHHVCMCNNETPNRVMLDYYREGQGKAGRTSPEGRGRRSPVLLPKGLLATEVGRADGGTGDNSPSPSSSLPSPLSDPRREPMNIYNLIAIIRDQIKHLQAAVDRTTELSRQRIASQELGPAVDKDKEALMEEILKLKSLLSTKREQITTLRTVLKANKQTAEVALANLKSKYENEKAMVTETMMKLRNELKALKEDAATFSSLRAMFATRCDEYITQLDEMQRQLAAAEDEKKTLNSLLRMAIQQKLALTQRLELLELDHEQTRRGRSKAASKAKPASPSL
notes: BICD2, mouse cDNA amplified from the pEGFP constructs into pLIB-TwinStrep-3C-BICD2; A 3C site lies between tag and protein; no cleavage is described; also called full-length BICD2 WT; wild type TwinStrep-BICD2; source: insect cells (baculovirus), purified (StrepTactinXT, Superdex 200); not shown: TwinStrep, N-terminal, kept
B2: TwinStrep-BICD2 S102D (natural protein, mouse, UniProt Q921C5 1-820, looked up)
chain: B1 chain with S102D
notes: BICD2, mouse, with S102D (pLIB-TwinStrep-3C-BICD2 S102D); A 3C site lies between tag and protein; no cleavage is described; also called full-length BICD2 S102D; S102D TwinStrep-BICD2; source: insect cells (baculovirus), purified (StrepTactinXT, Superdex 200); not shown: TwinStrep, N-terminal, kept
B3: GST-Rab6A (natural protein, human, UniProt P20340 1-208, looked up)
chain: MSTGGDFGNPLRKFKLVFLGEQSVGKTSLITRFMYDSFDNTYQATIGIDFLSKTMYLEDRTVRLQLWDTAGQERFRSLIPSYIRDSTVAVVVYDITNVNSFQQTTKWIDDVRTERGSDVIIMLVGNKTDLADKRQVSIEEGERKAKELNVMFIETSAKAGYNVKQLFRRVAAALPGMESTQDRSREDMIDIKLEKPQEQPVSEGGCSC
notes: Preloaded with either GDP or GTPγS before the pull-down

The target of the data set “GST-Rab6A” is B3. As to the kind of experiment: pull-down; GST-Rab6 on GSH agarose beads preloaded with GTPγS, incubated 90 min at RT with purified TwinStrep-BICD2 in Binding Buffer (50 mM Tris pH 7.4, 125 mM NaCl, 5 mM EDTA, 0.1% NP40); blot with anti-BICD2. To be noted: both partners purified.
Data set [1] concerns the molecule itself. The data set can be described thus: SEC-MALS; purified TwinStrep-BICD2 WT and S102D; predicted MW of ~190 kDa.
The data set “TwinStrep-BICD2 S102D” addresses B2. As to the kind of experiment: pull-down; GST-Rab6 on GSH agarose beads preloaded with GTPγS, incubated 90 min at RT with purified TwinStrep-BICD2 in Binding Buffer (50 mM Tris pH 7.4, 125 mM NaCl, 5 mM EDTA, 0.1% NP40); blot with anti-BICD2. To be noted: both partners purified.

Take B1: the “fold binding against Rab6 preloaded with GDP” value with GST-Rab6A is approximately 5 fold.
For the molecule B2, the “fold binding against Rab6 preloaded with GDP” value with GST-Rab6A was approximately 5 fold. Also, the stoichiometry N (usually the number of molecules, sites or subunits per partner or assembly) in data set [1] is 2.
With B3, the binding result in the data set with TwinStrep-BICD2 S102D is listed as “binds”.
